Source: patent publication US20030170760A1

Molecular target: T1, Ste2 (yeast) (UniProt D6VTK4)
T1 sequence (looked up): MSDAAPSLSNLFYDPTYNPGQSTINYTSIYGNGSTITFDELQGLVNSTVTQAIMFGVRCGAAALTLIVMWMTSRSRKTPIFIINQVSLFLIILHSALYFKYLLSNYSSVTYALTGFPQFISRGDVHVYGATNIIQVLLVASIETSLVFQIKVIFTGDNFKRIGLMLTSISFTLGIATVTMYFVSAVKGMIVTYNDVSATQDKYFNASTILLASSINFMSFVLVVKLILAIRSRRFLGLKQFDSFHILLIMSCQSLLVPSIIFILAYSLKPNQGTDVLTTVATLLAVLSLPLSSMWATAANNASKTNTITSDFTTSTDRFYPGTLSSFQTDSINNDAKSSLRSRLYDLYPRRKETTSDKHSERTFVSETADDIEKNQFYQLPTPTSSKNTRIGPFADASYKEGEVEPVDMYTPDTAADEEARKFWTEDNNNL
Test: cell-based or functional assay

“α-factor (from UniProt P01149 90-102) (peptide)” gave a Maximum Fold Induction, lacZ assay, Fus1p-lacZ reporter, ligand incubation 1 hr, Gα GPA1 of 22 fold, a Maximum Fold Induction, lacZ assay, Fus1p-lacZ reporter, ligand incubation 2 hrs, Gα GPA1 of 123 fold and a Maximum Fold Induction, lacZ assay, Fus1p-lacZ reporter, ligand incubation 3 hrs, Gα GPA1 of 218 fold. It also gave a Maximum Fold Induction, lacZ assay, LBF system (p8op-lacZ reporter), ligand incubation 1 hr, Gα GPA1 of 29 fold, a Maximum Fold Induction, lacZ assay, LBF system (p8op-lacZ reporter), ligand incubation 2 hrs, Gα GPA1 of 63 fold and a Maximum Fold Induction, lacZ assay, LBF system (p8op-lacZ reporter), ligand incubation 3 hrs, Gα GPA1 of 36 fold.
